From patent publication US20210130452A1 (Merck KGaA, published 2021)
Changes are numbered by the printed parent chain. Read-outs that look alike come from different tables or passages of the source. Values belong to the binder of their own block, whether it stands above or below them.

Experiments:
human IL-17A [1] = biological target: T1, human IL-17A (human, UniProt Q16552 24-155); assay: AlphaScreen hIL-17A-IL-17RA; vs IL17MS13B03
T1 construct: secreted form made in Hek293 cells (GenBank U32659); also called hIL-17A; hIL17A

human IL-17F [2] = biological target: T2, human IL-17F (human, UniProt Q96PD4 31-163); assay: AlphaScreen hIL-17F-IL-17RC; vs IL17MS13B03
T2 construct: made in Hek293 cells (GenBank AF384857); also called hIL-17F; hIL17F
T2 sequence: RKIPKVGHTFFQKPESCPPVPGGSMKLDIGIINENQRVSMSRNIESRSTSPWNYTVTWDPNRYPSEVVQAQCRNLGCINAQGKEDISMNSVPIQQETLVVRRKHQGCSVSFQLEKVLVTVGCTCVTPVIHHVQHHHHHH

human IL-17A [3] = biological target: T1, human IL-17A; assay: SPR (Biacore) off-rate
human IL-17F [4] = biological target: T2, human IL-17F; assay: SPR (Biacore) off-rate
[5] = biological target: T3, human IL-17A/F heterodimer (human, UniProt Q16552 24-155; Q96PD4 31-163, limits assumed); assay: SPR (Biacore) off-rate
T3 construct: bought, made in E. coli (R&D Systems 5194-IL/CF); also called hIL-17A/F; hIL17A/F

Cynomolgus monkey IL-17A [6] = biological target: T4, Cynomolgus monkey IL-17A (Cynomolgus monkey, UniProt A0A2K5TTB0 24-155); assay: SPR (Biacore) off-rate
T4 construct: also called cyno IL-17A; cIL-17A

Cynomolgus monkey IL-17F [7] = biological target: T5, Cynomolgus monkey IL-17F (Cynomolgus monkey, UniProt G7P4V0 31-163); assay: SPR (Biacore) off-rate
T5 construct: also called cyno IL-17F; cIL-17F
T5 sequence: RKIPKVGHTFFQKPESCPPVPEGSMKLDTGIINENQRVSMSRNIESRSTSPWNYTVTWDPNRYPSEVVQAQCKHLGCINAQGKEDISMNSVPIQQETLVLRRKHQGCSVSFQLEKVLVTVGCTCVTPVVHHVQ

human IL-17A [8] = biological target: T1, human IL-17A; assay: cell-based or functional assay
human IL-17F [9] = biological target: T2, human IL-17F; assay: cell-based or functional assay
[10] = biological target: T3, human IL-17A/F heterodimer; assay: cell-based or functional assay
Cynomolgus monkey IL-17F [11] = biological target: T5, Cynomolgus monkey IL-17F; assay: cell-based or functional assay
human IL-17A [12] = biological target: T6, human IL-17A (human, UniProt Q16552 24-155, biotinylated with Sulfo-NHS-LC-Biotin in the AlphaScreen assays only); assay: cell-based or functional assay
human IL-17A [13] = biological target: T6, human IL-17A; assay: AlphaScreen competition, hIL-17A - IL-17RA-Fc;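 also: receptor Fc-fusion plus Acceptor and streptavidin Donor beads incubated with the mixture for 1 h at room temperature before reading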
Procedure: (§1) To this mixture, the IL-17RA or IL-17RC Fc-fusions, Acceptor beads and the streptavidin Donor beads were added and further incubated for 1 hour at RT.

human IL-17A [14] = biological target: T6, human IL-17A; assay: AlphaScreen competition, hIL-17A - IL-17RC-Fc;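 also: Read-out after 1 h at room temperature with the receptor Fc-fusion, Acceptor beads and streptavidin-coated Donor beads present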
Procedure: as §1

human IL-17A [15] = biological target: T6, human IL-17A; assay: SPR Biacore, hIL-17A on chip; periplasmic extract (*)
human IL-17F [16] = biological target: T7, human IL-17F (human, UniProt Q96PD4 31-163, biotinylated with Sulfo-NHS-LC-Biotin in the AlphaScreen assays only); assay: SPR Biacore, hIL-17F on chip; periplasmic extract (*); NB = no binding
T7 construct: also called hIL-17F; recombinant human IL-17F
T7 sequence: T2 sequence
Procedure: (§2) Off-rates of the periplasmic extracts containing anti-IL-17 Nanobodies were measured by Surface Plasmon Resonance (SPR) using a Biacore T100 instrument. […] Periplasmic extracts containing IL-17 neutralizing Nanobodies were injected for 2 minutes at a flow rate of 45 μl/min to allow binding to chip-bound antigen. Next, binding buffer without periplasmic extracts was sent over the chip at the same flow rate to allow spontaneous dissociation of bound Nanobody. From the sensorgrams obtained for the different periplasmic extracts koff-values (k₄) were calculated.

[17] = biological target: T8, human IL-17A/F heterodimer (human, UniProt Q16552 24-155; Q96PD4 31-163, limits assumed, biotinylated with Sulfo-NHS-LC-Biotin in the AlphaScreen assays only); assay: SPR Biacore, hIL-17A/F on chip; periplasmic extract (*); NB = no binding
T8 construct: also called hIL-17A/F
Procedure: as §2

human IL-17A [18] = biological target: T1, human IL-17A; assay: SPR (Biacore) off-rate; remark: listed apart in the source
[19] = biological target: T3, human IL-17A/F heterodimer; assay: SPR (Biacore) off-rate; remark: listed apart in the source
Cynomolgus monkey IL-17A [20] = biological target: T4, Cynomolgus monkey IL-17A; assay: SPR (Biacore) off-rate; remark: listed apart in the source
human IL-17A [21] = biological target: T1, human IL-17A; assay: cell-based or functional assay; remark: listed apart in the source
[22] = biological target: T3, human IL-17A/F heterodimer; assay: cell-based or functional assay; remark: listed apart in the source
human IL-17A [23] = biological target: T1, human IL-17A; assay: competition ELISA IL-17A-IL-17RA
human IL-17A [24] = biological target: T1, human IL-17A; assay: AlphaScreen IL-17A-IL-17RA (average)
human IL-17F [25] = biological target: T2, human IL-17F; assay: AlphaScreen hIL-17F-IL-17RC; vs IL17MS13E02
human IL-17F [26] = biological target: T2, human IL-17F; assay: SPR (Biacore) off-rate; remark: listed apart in the source
Cynomolgus monkey IL-17F [27] = biological target: T5, Cynomolgus monkey IL-17F; assay: SPR (Biacore) off-rate; remark: listed apart in the source
human IL-17F [28] = biological target: T2, human IL-17F; assay: cell-based or functional assay; remark: listed apart in the source
Cynomolgus monkey IL-17F [29] = biological target: T5, Cynomolgus monkey IL-17F; assay: cell-based or functional assay; remark: listed apart in the source
human IL-17F [30] = biological target: T2, human IL-17F; assay: AlphaScreen IL-17F-IL-17RC; vs IL17MS16A04

T3 sequence (Q16552 24-155 limits assumed, one chain of several): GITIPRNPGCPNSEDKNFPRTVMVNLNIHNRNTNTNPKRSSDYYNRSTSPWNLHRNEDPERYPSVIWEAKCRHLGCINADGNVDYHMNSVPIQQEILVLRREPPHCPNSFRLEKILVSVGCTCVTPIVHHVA
T1 sequence (Q16552 other isoform, or with tags, fused parts or gaps): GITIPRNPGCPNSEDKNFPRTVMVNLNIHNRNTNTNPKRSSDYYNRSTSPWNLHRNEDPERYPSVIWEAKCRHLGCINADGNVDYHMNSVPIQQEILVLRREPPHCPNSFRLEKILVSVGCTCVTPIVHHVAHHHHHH
T6 sequence (Q16552 other isoform, or with tags, fused parts or gaps): as above
T4 sequence (A0A2K5TTB0 entry or part of it): as the sequence (Q16552 24-155 limits assumed, one chain of several) above, with T3A, P8S, N34S, I77V, N78K, P104R counted along it
T8 sequence (Q16552 24-155 limits assumed, one chain of several): as the sequence (Q16552 24-155 limits assumed, one chain of several) above

B2: IL17MS3067 (VHH)
VHH: DVQLVESGGGLVQPGGSLRLSCAASGRASSINWMGWFRQAPGKEREFVAGIRWSDAYTEYADSVKGRFTISRDNSKNTVYLQMNSLRPEDTAVYYCVLDLSTVRYWGQGTLVTVSS
notes: variant of IL17MS13B03; Kabat numbering
koff (human IL-17A [3]): 0.000133 s⁻¹ | koff (human IL-17F [4]): 0.00138 s⁻¹ | koff [5]: 0.000183 s⁻¹ | koff (Cynomolgus monkey IL-17A [6]): 0.000126 s⁻¹ | koff (Cynomolgus monkey IL-17F [7]): 0.00166 s⁻¹ | IC50 cell based assay hIL17A (human IL-17A [8]): 0.7 nM | IC50 cell based assay hIL17F (human IL-17F [9]): 35 nM | IC50 cell based assay hIL17A/F [10]: 1.8 nM | IC50 cell based assay cyno IL17F (Cynomolgus monkey IL-17F [11]): 13 nM | IC50 fold difference compared to WT (human IL-17A [1]): 1.3 fold | IC50 fold difference compared to WT (human IL-17F [2]): 0.2 fold

B3: 03B08 (VHH)
VHH: EVQLVESGGGLVQAGGSLRLSCAASGFTFDDYAIGWFRQAPGKEREGVSCISSSDGSIYYADSVKGRFTISSDNAKNTVYLQMNSLKPEDTAVYHCARFGRTGWAEECVDYDYWGQGTQVTVSS
notes: Class 1 Nanobody (anti-IL-17A); not shown: c-myc, His6 tag
IL-17A-induced IL-6 production in HT-1080 cells, Emax (human IL-17A [12]): 98.5% | IL-17A-induced IL-6 production in HT-1080 cells, IC50 (human IL-17A [12]): 3.6 nM | IC50 (human IL-17A [13]): 0.08 nM | IC50 (human IL-17A [14]): 0.384 nM | koff (human IL-17A [15]): 0.0001 s⁻¹ | binding result (human IL-17F [16]): no binding | binding result [17]: no binding

B4: IL17MS04G01 (VHH)
VHH: EVQLVESGGGLVQAGGSQRLSCTASGTIVNIHVMGWYRQAPGKQRELVALIFSGGSADYADSVKGRFTISRDNAKNTVYLEMNSLKAEDTAVYYCAAEIGYYSGGTYYSSEAHWGQGTQVTVSS
notes: Class 2 Nanobody, wild type; also called WT
koff (human IL-17A [18]): 0.000116 s⁻¹ | koff [19]: 0.00017 to 0.00023 s⁻¹ | koff (Cynomolgus monkey IL-17A [20]): 0.00032 s⁻¹ | IC50 cell based assay hIL-17A (IL-6, HT-1080 cells) (human IL-17A [21]): 0.71 nM | IC50 cell based assay hIL-17A/F (IL-6, HT-1080 cells) [22]: 7.55 nM | IC50 (human IL-17A [23]): 0.122 nM | IC50 (human IL-17A [24]): 0.093 nM

B6: 01G03 (VHH)
VHH: EVQLVESGGGLVQAGGSLRLSCAASERTISNYDMGWFRQAPGKERELIAADISWSALNTNYADSVKGRFTISRDNAKNMVYLQMNNLKPEDTAVYYCAARRSGYASFDNWGQGTQVTVSS
notes: as for B3
IL-17A-induced IL-6 production in HT-1080 cells, Emax (human IL-17A [12]): 85.7% | IL-17A-induced IL-6 production in HT-1080 cells, IC50 (human IL-17A [12]): 68.3 nM | IC50 (human IL-17A [13]): 0.325 nM | IC50 (human IL-17A [14]): 1.15 nM | koff (human IL-17A [15]): 0.00045 s⁻¹ | binding result (human IL-17F [16]): no binding | binding result [17]: no binding

B7: IL17MS3063 (VHH)
VHH: DVQLVESGGGLVQPGGSLRLSCAASGRTFSSYVVGWFRQAPGKEREFIGAISGSGESIYYAVSEKGRFTISRDNSKNTLYLQMNSLRPEDTAVYYCTADQEFGYLRFGRSEYWGQGTLVTVSS
notes: variant of IL17MS16A04; Kabat numbering
koff (human IL-17F [26]): 0.000655 s⁻¹ | koff (Cynomolgus monkey IL-17F [27]): 0.00111 s⁻¹ | IC50 cell based assay hIL-17F (human IL-17F [28]): 14 nM | IC50 cell based assay cyno IL-17F (Cynomolgus monkey IL-17F [29]): 34.2 nM | IC50 fold difference vs WT (human IL-17F [30]): 3.7 fold

Second part, the binder after the results:

IC50 fold difference compared to WT (human IL-17A [1]): 1.2 fold | IC50 fold difference compared to WT (human IL-17F [2]): 0.2 fold
B1: IL17MS3068 (VHH)
VHH: B2 VHH with D1E
notes: as for B2

IC50 fold difference vs WT (human IL-17F [25]): 0.3 fold
B5: IL17MS3071 (VHH)
VHH: EVQLVESGGGLVQPGGSLRLSCAASGRTYDALGWLRQAPGKEREFVAAISGSGDDTYYADSVKGRFTISRDNSKNTLYLQMNSLRPEDTAVYYCATRRGLYYVWDANDYENWGQGTLVTVSS
notes: variant of IL17MS13E02; Kabat numbering
